# US20040018971A1 (published 2004)
# B1: HER2/neu peptide, position 1120, 10 amino acids (peptide)
# peptide: LPSETDGYVA
# B2: HER2/neu peptide, position 1208, 10 amino acids (peptide)
# peptide: HPPPAFSPAF
# B3: HER2/neu peptide, position 926, 10 amino acids (peptide)
# peptide: IPAREIPDLL
# B4: HER2/neu peptide, position 995, 10 amino acids (peptide)
# peptide: GPASPLDSTF
# B5: HER2/neu peptide, position 1032, 8 amino acids (peptide)
# peptide: CPDPAPGA
# B6: HER2/neu peptide, position 315, 8 amino acids (peptide)
# peptide: CPLHNQEV
# B7: HER2/neu peptide, position 336, 8 amino acids (peptide)
# peptide: KPCARVCY
# B8: HER2/neu peptide, position 926, 9 amino acids (peptide)
# peptide: IPAREIPDL
# B9: HER2/neu peptide, position 1120, 9 amino acids (peptide)
# peptide: LPSETDGYV
# B10: HER2/neu peptide, position 626, 10 amino acids (peptide)
# peptide: CPINCTHSCV
# B11: HER2/neu peptide, position 16, 10 amino acids (peptide)
# peptide: LPPGAASTQV
# B12: HER2/neu peptide, position 1034, 10 amino acids (peptide)
# peptide: DPAPGAGGMV
# B13: HER2/neu peptide, position 1155, 11 amino acids (peptide)
# peptide: GPLPAARPAGA
# B14: HER2/neu peptide, position 246, 11 amino acids (peptide)
# peptide: GPKHSDCLACL
# B15: HER2/neu peptide, position 1076, 11 amino acids (peptide)
# peptide: APSEGAGSDVF
# B16: HER2/neu peptide, position 1034, 9 amino acids (peptide)
# peptide: DPAPGAGGM
# B17: HER2/neu peptide, position 231, 11 amino acids (peptide)
# peptide: LPTDCCHEQCA
# B18: HER2/neu peptide, position 336, 10 amino acids (peptide)
# peptide: KPCARVCYGL
# notes: also called Her2/neu.336
# B19: HER2/neu peptide, position 522, 8 amino acids (peptide)
# peptide: GPGPTQCV
# B20: HER2/neu peptide, position 65, 10 amino acids (peptide)
# peptide: LPTNASLSFL
# notes: also called Her2/neu.65
# B21: HER2/neu peptide, position 1208, 9 amino acids (peptide)
# peptide: HPPPAFSPA
# B22: HER2/neu peptide, position 35, 11 amino acids (peptide)
# peptide: LPASPETHLDM
# B23: HER2/neu peptide, position 1101, 9 amino acids (peptide)
# peptide: LPTHDPSPL
# B24: HER2/neu peptide, position 931, 11 amino acids (peptide)
# peptide: IPDLLEKGERL
# B25: HER2/neu peptide, position 578, 8 amino acids (peptide)
# peptide: GPEADQCV
# B26: HER2/neu peptide, position 698, 8 amino acids (peptide)
# peptide: EPLTPSGA
# B27: HER2/neu peptide, position 1076, 10 amino acids (peptide)
# peptide: APSEGAGSDV
# B28: HER2/neu peptide, position 1120, 8 amino acids (peptide)
# peptide: LPSETDGY
# B29: HER2/neu peptide, position 1155, 9 amino acids (peptide)
# peptide: GPLPAARPA
# B30: HER2/neu peptide, position 384, 9 amino acids (peptide)
# peptide: DPASNTAPL
# B31: HER2/neu peptide, position 121, 9 amino acids (peptide)
# peptide: DPLNNTTPV
# B32: HER2/neu peptide, position 299, 10 amino acids (peptide)
# peptide: CPYNYLSTDV
# B33: HER2/neu peptide, position 1157, 11 amino acids (peptide)
# peptide: LPAARPAGATL
# B34: HER2/neu peptide, position 282, 8 amino acids (peptide)
# peptide: MPNPEGRY
# B35: HER2/neu peptide, position 35, 9 amino acids (peptide)
# peptide: LPASPETHL
# B36: HER2/neu peptide, position 698, 9 amino acids (peptide)
# peptide: EPLTPSGAM
# B37: HER2/neu peptide, position 1129, 11 amino acids (peptide)
# peptide: APLTCSPQPEY
# B38: HER2/neu peptide, position 600, 9 amino acids (peptide)
# peptide: CPSGVKPDL
# B39: HER2/neu peptide, position 246, 8 amino acids (peptide)
# peptide: GPKHSDCL
# B40: HER2/neu peptide, position 390, 11 amino acids (peptide)
# peptide: APLQPEQLQVF
# B41: HER2/neu peptide, position 578, 11 amino acids (peptide)
# peptide: GPEADQCVACA
# B42: HER2/neu peptide, position 605, 10 amino acids (peptide)
# peptide: KPDLSYMPIW
# B43: HER2/neu peptide, position 550, 8 amino acids (peptide)
# peptide: LPREYVNA
# B44: HER2/neu peptide, position 1032, 11 amino acids (peptide)
# peptide: CPDPAPGAGGM
# B45: HER2/neu peptide, position 1157, 9 amino acids (peptide)
# peptide: LPAARPAGA
# B46: HER2/neu peptide, position 995, 11 amino acids (peptide)
# peptide: GPASPLDSTFY
# B47: HER2/neu peptide, position 377, 10 amino acids (peptide)
# peptide: LPESFDGDPA
# B48: HER2/neu peptide, position 642, 10 amino acids (peptide)
# peptide: CPAEQRASPL
# notes: also called Her2/neu.642
# B49: HER2/neu peptide, position 740, 11 amino acids (peptide)
# peptide: IPDGENVKIPV
# B50: HER2/neu peptide, position 1105, 8 amino acids (peptide)
# peptide: DPSPLQRY
# B51: HER2/neu peptide, position 605, 9 amino acids (peptide)
# peptide: KPDLSYMPI
# notes: also called Her2/neu.605
# B52: HER2/neu peptide, position 921, 11 amino acids (peptide)
# peptide: KPYDGIPAREI
# B53: HER2/neu peptide, position 748, 8 amino acids (peptide)
# peptide: IPVAIKVL
# B54: HER2/neu peptide, position 315, 10 amino acids (peptide)
# peptide: CPLHNQEVTA
# B55: HER2/neu peptide, position 982, 8 amino acids (peptide)
# peptide: DPQRFVVI
# B56: HER2/neu peptide, position 419, 10 amino acids (peptide)
# peptide: LPDLSVFQNL
# B57: HER2/neu peptide, position 600, 11 amino acids (peptide)
# peptide: CPSGVKPDLSY
# notes: also called Her2/neu.600
# B58: HER2/neu peptide, position 578, 9 amino acids (peptide)
# peptide: GPEADQCVA
# B59: HER2/neu peptide, position 564, 11 amino acids (peptide)
# peptide: HPECQPQNGSV
# B60: HER2/neu peptide, position 524, 11 amino acids (peptide)
# peptide: GPTQCVNCSQF
# B61: HER2/neu peptide, position 740, 9 amino acids (peptide)
# peptide: IPDGENVKI
# B62: HER2/neu peptide, position 1204, 9 amino acids (peptide)
# peptide: APQPHPPPA
# B63: HER2/neu peptide, position 1204, 10 amino acids (peptide)
# peptide: APQPHPPPAF
# B64: HER2/neu peptide, position 1212, 11 amino acids (peptide)
# peptide: AFSPAFDNLYY
# B65: HER2/neu peptide, position 293, 9 amino acids (peptide)
# peptide: ASCVTACPY
# notes: also called Her2/neu.293
# B66: HER2/neu peptide, position 997, 9 amino acids (peptide)
# peptide: ASPLDSTFY
# B67: HER2/neu peptide, position 401, 9 amino acids (peptide)
# peptide: ETLEEITGY
# B68: HER2/neu peptide, position 334, 10 amino acids (peptide)
# peptide: CSKPCARVCY
# B69: HER2/neu peptide, position 1013, 11 amino acids (peptide)
# peptide: DMGDLVDAEEY
# B70: HER2/neu peptide, position 1212, 10 amino acids (peptide)
# peptide: AFSPAFDNLY
# B71: HER2/neu peptide, position 580, 11 amino acids (peptide)
# peptide: EADQCVACAHY
# notes: also called Her2/neu.580
# B72: HER2/neu peptide, position 40, 11 amino acids (peptide)
# peptide: ETHLDMLRHLY
# notes: also called Her2/neu.40
# Target: HLA-B*0702 (human)
# Assay: competition with 125I-labelled probe peptide for purified HLA, gel filtration
row,Binder,relative binding ratio
1,B1,0.0001 ratio (IC50 of standard / IC50 of test peptide)
2,B2,0.0018 ratio (IC50 of standard / IC50 of test peptide)
3,B3,0.0004 ratio (IC50 of standard / IC50 of test peptide)
4,B4,0.051 ratio (IC50 of standard / IC50 of test peptide)
5,B5,< 0.0002 ratio (IC50 of standard / IC50 of test peptide)
6,B6,< 0.0006 ratio (IC50 of standard / IC50 of test peptide)
7,B7,< 0.0006 ratio (IC50 of standard / IC50 of test peptide)
8,B8,0.0006 ratio (IC50 of standard / IC50 of test peptide)
9,B9,0.0002 ratio (IC50 of standard / IC50 of test peptide)
10,B10,0.0002 ratio (IC50 of standard / IC50 of test peptide)
11,B11,0.0002 ratio (IC50 of standard / IC50 of test peptide)
12,B12,0.0002 ratio (IC50 of standard / IC50 of test peptide)
13,B13,0.016 ratio (IC50 of standard / IC50 of test peptide)
14,B14,0.0006 ratio (IC50 of standard / IC50 of test peptide)
15,B15,0.0006 ratio (IC50 of standard / IC50 of test peptide)
16,B16,0.0001 ratio (IC50 of standard / IC50 of test peptide)
17,B17,< 0.0003 ratio (IC50 of standard / IC50 of test peptide)
18,B18,0.037 ratio (IC50 of standard / IC50 of test peptide)
19,B19,< 0.0006 ratio (IC50 of standard / IC50 of test peptide)
20,B20,0.019 ratio (IC50 of standard / IC50 of test peptide)
21,B21,0.0093 ratio (IC50 of standard / IC50 of test peptide)

row,Binder,relative binding ratio
1,B22,< 0.0002 ratio (IC50 of standard / IC50 of test peptide)
2,B23,0.046 ratio (IC50 of standard / IC50 of test peptide)
3,B24,< 0.0002 ratio (IC50 of standard / IC50 of test peptide)
4,B25,< 0.0006 ratio (IC50 of standard / IC50 of test peptide)
5,B26,< 0.0002 ratio (IC50 of standard / IC50 of test peptide)
6,B27,0.0002 ratio (IC50 of standard / IC50 of test peptide)
7,B28,< 0.0006 ratio (IC50 of standard / IC50 of test peptide)
8,B29,0.09 ratio (IC50 of standard / IC50 of test peptide)
9,B30,0.0004 ratio (IC50 of standard / IC50 of test peptide)
10,B31,0.0002 ratio (IC50 of standard / IC50 of test peptide)
11,B32,0.0016 ratio (IC50 of standard / IC50 of test peptide)
12,B33,0.014 ratio (IC50 of standard / IC50 of test peptide)
13,B34,< 0.0006 ratio (IC50 of standard / IC50 of test peptide)
14,B35,0.0002 ratio (IC50 of standard / IC50 of test peptide)
15,B36,0.011 ratio (IC50 of standard / IC50 of test peptide)
16,B37,< 0.0002 ratio (IC50 of standard / IC50 of test peptide)
17,B38,0.014 ratio (IC50 of standard / IC50 of test peptide)
18,B39,0.0092 ratio (IC50 of standard / IC50 of test peptide)
19,B40,0.0011 ratio (IC50 of standard / IC50 of test peptide)
20,B41,< 0.0003 ratio (IC50 of standard / IC50 of test peptide)
21,B42,0.0001 ratio (IC50 of standard / IC50 of test peptide)

row,Binder,relative binding ratio
1,B43,0.0012 ratio (IC50 of standard / IC50 of test peptide)
2,B44,< 0.0002 ratio (IC50 of standard / IC50 of test peptide)
3,B45,0.0027 ratio (IC50 of standard / IC50 of test peptide)
4,B46,0.0036 ratio (IC50 of standard / IC50 of test peptide)
5,B47,0.0001 ratio (IC50 of standard / IC50 of test peptide)
6,B48,0.15 ratio (IC50 of standard / IC50 of test peptide)
7,B49,0.0023 ratio (IC50 of standard / IC50 of test peptide)
8,B50,< 0.0006 ratio (IC50 of standard / IC50 of test peptide)
9,B51,0.072 ratio (IC50 of standard / IC50 of test peptide)
10,B52,0.043 ratio (IC50 of standard / IC50 of test peptide)
11,B53,0.012 ratio (IC50 of standard / IC50 of test peptide)
12,B54,0.0001 ratio (IC50 of standard / IC50 of test peptide)
13,B55,< 0.0006 ratio (IC50 of standard / IC50 of test peptide)
14,B56,0.0003 ratio (IC50 of standard / IC50 of test peptide)
15,B57,0.03 ratio (IC50 of standard / IC50 of test peptide)
16,B58,0.0001 ratio (IC50 of standard / IC50 of test peptide)
17,B59,< 0.0002 ratio (IC50 of standard / IC50 of test peptide)
18,B60,0.0005 ratio (IC50 of standard / IC50 of test peptide)
19,B61,0.0001 ratio (IC50 of standard / IC50 of test peptide)
20,B62,0.0056 ratio (IC50 of standard / IC50 of test peptide)
21,B63,0.053 ratio (IC50 of standard / IC50 of test peptide)

# Target: T1, HLA-A*0101 (human)
# T1 construct: also called HLA-A1
# Assay: competition with 125I-labelled probe peptide for purified HLA-A*0101, gel filtration; relative to standard peptide
row,Binder,relative binding ratio (IC50 of standard peptide / IC50 of test peptide) [relative binding ratio]
1,B64,0.014
2,B65,0.055
3,B66,0.029
4,B67,0.043
5,B68,0.0016
6,B69,0.0027
7,B70,0.001
8,B71,0.1
9,B72,0.28
